Assay [1] has as its system rivaroxaban (prothrombin time). Nature of the assay: Reversal of rivaroxaban's effect on prothrombin time (PT) in vitro, human plasma. Type of assay: biochemical. The protocol:
(§1) Citrated blood (0.11 M Na-citrate/blood, 1:9 v/v) was obtained from human donors by venipuncture or from anesthetized Wistar rats (Charles River) by aortic cannulation and centrifuged at 4000 g for 15 minutes for separation of platelet-poor plasma. […] Antidote was added to the Plasma-rivaroxaban mixture and incubated for another 10 minutes at room temperature. The PT assay was run using Recombiplastin (Instrumentation Laboratory) as tissue factor source on an AMAX 200 automated coagulometer (Trinity Biotech) according to manufacturer's instructions. The composition of the final assay volume is ⅓ plasma and ⅔ PT reagent. […] Data are given as means±sem from 5 experiments and represent final assay concentrations (Table 8 and FIGS. 7 and 8).

Assay [2] relates to rivaroxaban (prothrombin time). Nature of the assay: Reversal of rivaroxaban's effect on prothrombin time (PT) in vitro, rat plasma. Type of assay: biochemical. As to the method:
as §1

The nature of assay [3]: Affinity by surface plasmon resonance (Biacore), immobilized Fab, analyte rivaroxaban. As to conditions: Table 6, immobilized Fabs, SPR (Biacore). Type of assay: binding. The source says:
“Binding affinity” refers to the strength of the sum total of noncovalent interactions between a single binding site of a molecule and its binding partner. Unless indicated otherwise, as used herein, “binding affinity” refers to intrinsic binding affinity which reflects a 1:1 interaction between members of a binding pair (e.g. an antibody and an antigen). The dissociation constant “KD” is commonly used to describe the affinity between a molecule (such as an antibody) and its binding partner (such as an antigen) i.e. how tightly a ligand binds to a particular protein. Ligand-protein affinities are influenced by non-covalent intermolecular interactions between the two molecules Affinity can be measured by common methods known in the art, including those described herein. In one embodiment, the “KD” or “KD value” according to this invention is measured by using surface plasmon resonance assays using a Biacore T100 instrument (GE Healthcare Biacore, Inc.) according to Example 5. The dissociation equilibrium constant (KD) was calculated based on the ratio of association (kon) and dissociation rated (koff) constants, obtained by fitting sensograms with a first order 1:1 binding model using Biacore Evaluation Software. Other suitable devices are BIACORE(R)-2000, a BIACORE (R)-3000 (BIAcore, Inc., Piscataway, N.J.), or ProteOn XPR36 instrument (Bio-Rad Laboratories, Inc.).
Binding affinities of Fab-fragments were determined by surface plasmon resonance analysis on a Biacore T100 instrument (GE Healthcare Biacore, Inc.). Fab fragments were diluted to a final concentration of 10 μg/ml in 10 mM sodium acetate, pH 4.5, and immobilized on a CM5 chip (GE Healthcare Biacore, Inc.) at levels of 3000-5000RU by amine-coupling chemistry for flow cells 2, 3 and 4, respectively. Flow cell 1 was used as a reference. […] Sensograms were generated after in-line reference cell correction followed by buffer sample subtraction. The dissociation equilibrium constant (KD) was calculated based on the ratio of association and dissociation rated constants, obtained by fitting sensograms with a first order 1:1 binding model using BiaEvaluation Software.
In general terms: SPR reads the build-up and loss of mass on a sensor chip optically.

Assay [4] concerns rivaroxaban induced FXa inhibition. Nature of the assay: Functional neutralization of rivaroxaban in a biochemical Factor Xa activity assay. The settings on record: Table 6, 0.05 nM FXa, 0.6 nM rivaroxaban. As to the method: Serial dilutions of test compounds in assay buffer (50 mM HEPES pH 7.8, 250 mM NaCl, 6 mM CaCl2, 0.01% Brij35, 1 mM glutathione, 4 mM EDTA, 0.05% bovine serum albumin) were performed (typical concentrations ranging from 5 μM to 0.0007 μM).
20 μL of the diluted test compounds were placed in 384 well microtiter plates (Greiner, Frickenhausen, Germany), followed by the addition of 10 μL of a 1:400 dilution (250 μM) of the FXa substrate Pefafluor Xa (100 mM in DMSO, Loxo, Dossenheim, Germany) in assay buffer. […] Simultaneously, control reactions without rivaroxaban were started.
During incubation at 32° C., reaction progress curves were monitored using a fluorescence microtiter plate reader (e.g Tecan Ultra Evolution, Tecan Group Ltd., Mannedorf, Switzerland; excitation 360 nm, emission 465 nm).
The dilution of FXa was chosen that in the control reactions the reaction kinetics was linear, and less than 50% of the substrate was consumed (typical final FXa concentration in the assay: 0.05 nM). […] Results are depicted in FIG. 1.

Assay [5] is described as follows: ELISA-based activity assay of antibody variants with a competition step (300 nM rivaroxaban). On the set-up: key: ++: Variants with an average ratio above wt plus 2×SD (standard deviation of the ratio) were considered as improved; −: variants with a ratio below wt minus 2×SD were considered as reduced in their binding affinity; +/−: All variants with a performance in between both thresholds; −−: Variants with average fluorescence counts below the negative control (non-expressing cells) plus 3×SD were considered as non-binding. Type of assay: binding. As to conditions: Table 11: single and double amino acid substitutions within M18-G08, variant to wt ratio, 1-3 independent experiments. The protocol: To determine the activity of the mutated antibody variants on compound from Example 1K an equilibrium or dissociation limited ELISA assay format was used. Briefly, MTP plates (Nunc Maxisorp black, 460518) were coated with 4 μg/ml streptavidin (Calbiochem, 189730) diluted in coating buffer (Candor Bioscience GmbH, 121500) and incubated over night at 4° C. After washing with PBST, plates were blocked with 100% Smart Block (Candor Bioscience GmbH, 113500) in PBST for 1 h at room temperature and the washing step was repeated. […] After washing 10 μM Amplex Red (Invitrogen, A12222) were added and incubated for 10 to 30 min at room temperature followed by measurement of the fluorescence signal.
Provided in table 11 are several examples of single and/or double amino acid substitutions introduced into the heavy and/or the light chain of M18-G08 (wt). Performance of the variants was analyzed in quadruples in the ELISA with a competition step and the FXa deinhibition assay (FXa DIA). In the ELISA, averages were calculated and overall performance of variants was evaluated by comparing the variant to wt ratio from 1-3 independent experiments. […] Variants with average fluorescence counts below the negative control (non-expressing cells) plus 3×SD were considered as non-binding and marked with “−−”. […] Variants not analyzed are marked with “nd” (not determined). […]

Substitutions are numbered along the chain they refer to. A value given as a limit tells only on which side of the number the result lay.

With `O=C(NC[C@H]1CN(c2ccc(N3CCOCC3=O)cc2)C(=O)O1)c1ccc(Cl)s1` [Rivaroxaban, 5-Chloro-N-({(5S)-2-oxo-3-[4-(3-oxo-4-morpholinyl)phenyl]-1,3-oxazolidin-5-yl}-methyl)-2-thiophenecarboxamide, reference compound], the “PT prolongation by rivaroxaban (x control)” value was found to be 1.8 x control in assay [1] (rivaroxaban 0.17 μM), 2.2 x control in assay [1] (rivaroxaban 0.33 μM), 1.9 x control in assay [2] (rivaroxaban 0.4 μM) and 2.6 x control in assay [2] (rivaroxaban 0.8 μM).

B1: M16-D05: antibody, Vh SEQ ID NO: 213, Vl SEQ ID NO: 214 (antibody, listed as Homo Sapiens, V domains shown)
VH: EVQLLESGGGLVQPGGSLRLSCAASGFTFSAYWMAWVRQAPGKGLEWVSSISSSSSYIYYADSVKGRFTISRDNSKNTLYLQMNSLRAEDTAVYYCARVTEGGLDYWGQGTLVTVTS
VL: QSVLTQPPSASGTPGQRVTISCSGSSSNIGNNAVNWYQQLPGTAPKLLIYRNNQRPSGVPDRFSGSKSGTSASLAISGLRSEDEADYYCQSYDSSLSGWVFGGGTKLTVL
As a reminder, the Kd is the equilibrium constant for the complex coming apart. As usually defined, the EC50 is the concentration that produces a half-maximal response. The molecule B1 yielded a Kd in assay [3] of less than 500 nM. The molecule also yielded an EC50 in assay [4] of less than 1000 nM.

B2: M25-E05: antibody, Vh SEQ ID NO: 219, Vl SEQ ID NO: 220 (antibody, listed as Homo Sapiens, V domains shown)
VH: EVQLLESGGGLVQPGGSLRLSCAASGFTFSNAWMSWVRQAPGKGLEWVSSIHWNGGYIGYAESVKGRFTISRDNSKNTLYLQMNSLRAEDTAVYYCARVTLDAVDYWGQGTLVTVTS
VL: B1 VL with S94N, S95R, S97T, G98A
In assay [3], B2 yielded a dissociation constant Kd of less than 500 nM. This molecule gave an EC50 in assay [4] of less than 1000 nM.

B3: HC_N31S (antibody, V domains shown)
VH: EVQLLESGGGLVQPGGSLRLSCAASGFTFSSAWMSWVRQAPGKGLEWVSYISSSGSTIYYADSVKGRFTISRDNSKNTLYLQMNSLRAEDTAVYYCAREGLWAFDYWGQGTLVTVTS
VL: QSVLTQPPSASGTPGQRVTISCTGSSSNIGAGYVVHWYQQLPGTAPKLLIYDNNKRPSGVPDRFSGSKSGTSASLAISGLRSEDEADYYCAAWDDRLNGPVFGGGTKLTVLGQ
On to B3, for which, in assay [5], the ELISA entry is on record as “+/−”.

B4: M18-A10: antibody, Vh SEQ ID NO: 215, Vl SEQ ID NO: 216 (antibody, listed as Homo Sapiens, V domains shown)
VH: EVQLLESGGGLVQPGGSLRLSCAASGFTFSSYGMSWVRQAPGKGLEWVSGISGSGGSTYYADSVKGRFTISRDNSKNTLYLQMNSLRAEDTAVYYCARDGGYDELDYWGQGTLVTVTS
VL: QSVLTQPPSASGTPGQRVTISCTGSSSNIGAGYVVHWYQQLPGTAPKLLIYDNNKRPSGVPDRFSGSKSGTSASLAISGLRSEDEADYYCAAWDDSLSAWVFGGGTKLTVL
Take B4: in assay [3], the Kd is less than 500 nM. In addition, the 50% effective concentration (EC50) in assay [4] was less than 1000 nM.

B5: M16-A03: antibody, Vh SEQ ID NO: 211, Vl SEQ ID NO: 212 (antibody, listed as Homo Sapiens, V domains shown)
VH: EVQLLESGGGLVQPGGSLRLSCAASGFTFSSYAMSWVRQAPGKGLEWVSGISGSGGSTFYADSVKGRFTISRDNSENTLYLQMNSLRAEDTAVYYCARQTSSGLAGYSYGLDPWGQGTLVTVTS
VL: B4 VL with V34D, D52S, K55Q, A92G, A99G
The molecule B5 displayed a dissociation constant Kd in assay [3] of less than 500 nM. In assay [4], the EC50 is less than 2000 nM.

For the origin of these results see US20140050743A1, “BINDING PROTEINS TO INHIBITORS OF COAGULATION FACTORS” (BAYER INTELLECTUAL PROPERTY GMBH, priority 2011, published 2014).
